In one series the test system is CHO-parent. Kind of series: VHH-Fc FACS binding on CHO-parent cells. The conditions noted are these: Sample E10.fcs/CHO-parent. In general terms: Flow cytometry measures light scatter and fluorescence of single cells or particles in a stream.
Series [1] deals with T1, GLP1R (Homo sapiens, UniProt P43220). Kind of series: VHH-Fc FACS binding on CHO-GLP1R cells. The note with it: Sample E10.fcs/CHO-GLP1R. The procedure: A VHH library for GLP1R was developed similar to methods described in Example 14. Briefly, stable cell lines expressing GLP1R were generated, and target expression was confirmed by FACS. Cells expressing >80% of the target were then used for cell-based selections. Five rounds of cell-based selections were carried out against cells stably overexpressing the target of interest. 10^8 cells were used for each round of selection. Before selection on target expressing cells, phage from each round was first depleted on 10^8 CHO background cells. Stringency of selections was increased by increasing the number of washes in subsequent rounds of selections. The […] using trypsin, and the phage was amplified for the next round of panning. A total of 1000 clones from round 4 and round 5 are sequenced by NGS to identify unique clones for reformatting as VHH-Fc.
T1 sequence (P43220 24-463): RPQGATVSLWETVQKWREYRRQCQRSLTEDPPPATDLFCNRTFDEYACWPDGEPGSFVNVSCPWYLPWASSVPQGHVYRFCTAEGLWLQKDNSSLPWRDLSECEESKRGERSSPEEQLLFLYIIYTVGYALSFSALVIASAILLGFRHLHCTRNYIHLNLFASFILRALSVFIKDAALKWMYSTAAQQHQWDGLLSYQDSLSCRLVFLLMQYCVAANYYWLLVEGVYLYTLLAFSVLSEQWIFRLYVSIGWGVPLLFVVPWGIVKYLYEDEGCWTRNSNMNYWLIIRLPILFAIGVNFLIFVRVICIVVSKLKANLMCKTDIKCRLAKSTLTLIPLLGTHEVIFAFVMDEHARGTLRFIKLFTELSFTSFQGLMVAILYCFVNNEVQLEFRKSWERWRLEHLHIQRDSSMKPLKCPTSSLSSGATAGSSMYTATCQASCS
The data for variant GLP1R-43-77 is seen in FIGS. 22A-22B and Tables 23B-24.

Series [2] concerns the target T1, GLP1R. The experiment in a line: cAMP assay, allosteric effects on GLP1-7-36 peptide induced cAMP activity (Example 10). The format is cell-based. The conditions noted are these: FIGS. 10B-10J. The procedure:
Cell binding was determined for the GLP1R variants. […] GLP1R-3, GLP1R-8, GLP1R-26, GLP1R-56, GLP1R-58 and GLP1R-10 were then analyzed for allosteric effects on GLP1-7-36 peptide in a cAMP assay. FIGS. […] show graphs of the GLP1R variants on inhibition of GLP1-7-36 peptide induced cAMP activity.
A general note: Changes in cAMP serve as a functional read-out for many G protein-coupled receptors.

For series [3], the target named is T1, GLP1R. The experiment in a line: Binding on human GLP1R. The conditions noted are these: IgG at 100 nM (GLP1R-59-243 at 50 nM); data not shown. On the procedure:
(§1) Binding of GLP1R-3, GLP1R-59-242, and GLPTR-43-8 on mouse, macaca, and human GLP1R was determined. […] Binding of GLP1R-59-2, GLP1R-59-241, and GLPTR-59-243 on mouse, macaca, and human GLP1R was determined.

Series [4] concerns the target T1, GLP1R. The experiment in a line: cAMP assay, allosteric/antagonist effects on Exendin-4 peptide induced cAMP activity (Example 10). Format: cell-based.
Another series concerns the target T2, mouse GLP1R (Mus musculus, UniProt O35659).
T2 sequence (O35659 22-463): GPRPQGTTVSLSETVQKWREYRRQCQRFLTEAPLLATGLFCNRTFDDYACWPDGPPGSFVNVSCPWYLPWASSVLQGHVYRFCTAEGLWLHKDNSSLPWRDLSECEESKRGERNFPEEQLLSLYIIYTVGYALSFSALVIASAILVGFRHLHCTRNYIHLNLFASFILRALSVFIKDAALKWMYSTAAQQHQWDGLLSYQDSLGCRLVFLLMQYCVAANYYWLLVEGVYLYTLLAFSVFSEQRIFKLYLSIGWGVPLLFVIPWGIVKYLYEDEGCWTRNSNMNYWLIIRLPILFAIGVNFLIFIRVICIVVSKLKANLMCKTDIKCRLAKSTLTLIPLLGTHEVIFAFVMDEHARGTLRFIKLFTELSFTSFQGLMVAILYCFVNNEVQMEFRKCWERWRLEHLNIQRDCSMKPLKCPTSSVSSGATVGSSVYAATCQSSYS
The experiment in a line: Binding on mouse GLP1R. The note with it: IgG at 100 nM (GLP1R-59-243 at 50 nM); data not shown. On the procedure: as §1

A short description of series [5]: Thermal ramp stability (Tm and Tagg), UNcle platform. The format is physicochemical. An excerpt: The GLP1R IgGs were characterized for thermal ramp stability (Tm and Tagg). The UNcle platform was used to characterize the IgGs and the data is seen in Table 21.
Another series relates to C57BL/6J DIO mice. The experiment in a line: Oral glucose tolerance test in mouse model of diet induced obesity. Format: in vivo. The conditions noted are these: HFD, 10 mg/kg SC, 2 g/kg oral glucose 60 minutes later, FIGS. 24C-24D. On the procedure: The objective of this study was to evaluate the acute effects of a chimeric antibody GLP1R agonist and antagonist on glycemic control in a mouse model of diet induced obesity in C57BL/6J DIO mice. The test articles are seen below in Table 25.
For each test article, 7 different test article groups were generated as summarized in the following Table 26 with 8 animals per group.
On Day 3 (all animals) and Day 1 (Group 1-7), a non-fasting blood glucose was determined by tail snip. Approximately 5-10 μL of blood was collected. The second drop of blood from the animal was placed on a blood glucose test strip and analyzed using a hand-held glucometer (Abbott Alpha Trak).
After a non-fasting blood glucose measurement was made on the day of the procedure, the animals were weighed, tails marked, and the animals placed in clean cages without food. The animals were fasted for 4 hours and a fasting blood glucose measurement was determined.
The oral glucose tolerance test (OGTT) was administered to each animal 60 minutes later. The animals were dosed via oral gavage with 2 g/kg glucose (10 mL/kg). Blood glucose was determined via tail snip with the second drop of blood from the animal placed on a hand-held glucometer (Abbott Alpha Trak) at the following times relative to the glucose dose: 0 (just prior to glucose dose), 15, 30, 60, 90, and 120 minutes. […]

The subject of another series is C57BL/6NHsd Mice. Kind of series: Glucose Tolerance Test (GTT) in wild-type mice. The note with it: control mice exhibited a decrease; FIG. 25D. The format is in vivo, mouse. On the procedure:
15 C57BL/6NHsd Mice were used and subjected to a Glucose Tolerance Test (GTT). The in vivo GTT test was performed on three groups of mice with 5 mice per group. […] Blood glucose measurements were recorded for each mouse at 15, 30, 60, 120, and 180 minutes after dextrose injection. […] A third group of mice were the control mice and were not treated. Data is seen for GLP1R-59-2 (agonist), GLP1R-3 (antagonist), and control in FIGS. 25A-25D.

In series [6] the target is T1, GLP1R.
Procedure: All GLP1R scFv clones, as well as pGPCR-GLP1R-43 and pGPCR-GLP1R-44, were assayed for their potential effects on GLP1R signaling by performing cAMP assays (Eurofins DiscoverX Corporation). These assays involve CHO cells that were engineered to overexpress naturally Gαs-coupled wildtype GLP1R and were designed to detect changes in intracellular cAMP levels in response to agonist stimulation of the receptor. The technology involved in detecting cAMP levels was a no wash gain-of-signal competitive immunoassay based on Enzyme Fragment Complementation technology and produced a luminescent signal that was directly proportional to the amount of cAMP in the cells. Experiments were designed to determine agonist or allosteric activity of the IgGs.
The next series has as its target T3, GLP2R (Homo sapiens, UniProt O95838).
T3 sequence (O95838 1-553): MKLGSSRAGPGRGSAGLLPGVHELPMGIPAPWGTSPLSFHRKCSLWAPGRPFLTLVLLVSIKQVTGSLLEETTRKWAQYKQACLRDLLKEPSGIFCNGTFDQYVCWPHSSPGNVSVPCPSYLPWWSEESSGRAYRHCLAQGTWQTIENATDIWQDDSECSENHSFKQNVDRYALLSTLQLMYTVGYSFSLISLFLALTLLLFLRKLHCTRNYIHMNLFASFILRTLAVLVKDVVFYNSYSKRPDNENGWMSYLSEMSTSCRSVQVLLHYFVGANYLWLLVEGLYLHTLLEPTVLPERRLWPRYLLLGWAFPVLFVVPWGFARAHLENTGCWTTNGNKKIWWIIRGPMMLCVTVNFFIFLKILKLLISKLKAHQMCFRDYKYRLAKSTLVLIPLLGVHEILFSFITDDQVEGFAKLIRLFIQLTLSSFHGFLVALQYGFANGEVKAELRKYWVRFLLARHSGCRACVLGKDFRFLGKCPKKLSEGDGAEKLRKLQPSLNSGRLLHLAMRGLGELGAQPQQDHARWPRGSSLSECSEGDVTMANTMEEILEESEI
The experiment in a line: Specificity of GLP1R versus GLP2R binding. The conditions noted are these: data not shown.

A further series deals with macaca GLP1R. The experiment in a line: Binding on macaca GLP1R. The note with it: IgG at 100 nM (GLP1R-59-243 at 50 nM); data not shown. On the procedure:
as §1

Series [7] concerns human pancreatic precursor cells expressing endogenous GLP1R. Kind of series: Binding to human pancreatic precursor cells expressing endogenous GLP1R. On the procedure: as §1

Where two headings read alike, the source gives them in different places.

B1: GLP1R-43-77: GLP1R VHH Fc binder variant from the VHH library for GLP1R (protein)
VHH: EVQLVESGGGLVQAGGSLRLSCAASGNTYSYKVMGWFRQAPGKEREFVGIIIRNGDTTYYADSVKGRFTISADNAKNTVYLQMNSLKPEDTAVYYCAASPKYMTAYERSYDWGQGTQVTVSS
modifications: Fc
For B1, the “Median: RL1-A” value came to 237 in the series with CHO-parent and 23439 with GLP1R [1].

B2: GLP1R-3: GLP1R antagonist IgG, CDR-H3 SEQ ID NO 2279, heavy chain SEQ ID NO 2320 (antibody)
heavy: QVQLVESGGGVVQPGRSLRLSCAASGFTFSSYGMHWVRQAPGKGLEWVSFISYDESNKYYADSVKGRFTISRDNSKNTLYLQMNSLRAEDTAVYYCAKHMSMQEGAVTGEGQAAKEFIAWLVKGRVRADLVGDAFDVWGQGTLVTVSSASTKGPSVFPLAPCSRSTSESTAALGCLVKDYFPEPVTVSWNSGALTSGVHTFPAVLQSSGLYSLSSVVTVPSSNFGTQTYTCNVDHKPSNTKVDKTVERKCCVECPPCPAPPVAGPSVFLFPPKPKDTLMISRTPEVTCVVVDVSHEDPEVQFNWYVDGVEVHNAKTKPREEQFNSTFRVVSVLTVVHQDWLNGKEYKCKVSNKGLPAPIEKTISKTKGQPREPQVYTLPPSREEMTKNQVSLTCLVKGFYPSDIAVEWESNGQPENNYKTTPPMLDSDGSFFLYSKLTVDKSRWQQGNVFSCSVMHEALHNHYTQKSLSLSPGK
light: QSVLTQPPSVSAAPGQKVTISCSGSSSNIADNYVSWYQQLPGTAPKLLIYDNNKRPSGIPDRFSGSKSGTSATLGITGLQTGDEADYYCGTWDNYLGAGVFGGGTKLTVLGQPKAAPSVTLFPPSSEELQANKATLVCLISDFYPGAVTVAWKADSSPVKAGVETTTPSKQSNNKYAASSYLSLTPEQWKSHRSYSCQVTHEGSTVEKTVAPTECS
As a reminder, the EC50 is the concentration at which the effect is half-maximal. As to B2, the “allosteric inhibition of GLP1-7-36 peptide induced cAMP activity” value in the series with GLP1R [2] was “allosteric inhibition”. Further, in the series with GLP1R [3], the “binding on human GLP1R” value was “found to bind”. Further, in the series with GLP1R [4] (EC50 of Exendin-4 induced cAMP in the presence of the GLP1R variant), the EC50 came to 0.63 nM. The fold-diff with GLP1R [4] (fold difference of Exendin-4 EC50 with variant versus Exendin-4 alone) is 5.4. Further, the “binding on mouse GLP1R” value in the series with mouse GLP1R was “found to bind”. In [5], the “Average Tagg 266” value turned out to be 68.4 °C, the “Average Tm2” value was found to be 73.5 °C and the “Average Tml” value worked out at 66.7 °C. Further, in the series on C57BL/6J DIO mice, the “glucose levels after glucose administration (OGTT)” value is given as “sustained high glucose levels”. Besides, in the series on C57BL/6NHsd Mice, the “change of glucose in a 6 hour fast, pre-dosed animals” value was “did not show decreased glucose”. The EC50 with GLP1R [6] (EC50 of GLP1 (7-36) cAMP response with GLP1R IgG (+100 nM)) was 1.31 nM. Moreover, the “fold difference of EC50” value with GLP1R [6] (EC50 with 100 nM IgG versus no antibody (Table 23)) is recorded as 2.2 fold. The “inhibition of GLP1:GLP1R signaling” value in the series with GLP1R [6] (GLP1 (7-36) titration versus no antibody, FIG. 24A) is “inhibits GLP1:GLP1R signaling”. Also, the “inhibition at higher concentrations” value with GLP1R [6] (following stimulation with 0.05 nM GLP1 (7-36), FIG. 24B) is listed as “complete inhibition”. Also, in the series with GLP2R, the “specificity of GLP1R versus GLP2R binding” value is on record as “specific for GLP1R over GLP2R”. In addition, the “binding on macaca GLP1R” value in the series on macaca GLP1R is “found to bind”. Moreover, the “binding to human pancreatic precursor cells expressing endogenous GLP1R” value in series [7] is given as “found to bound”.

(Values after patent US20250270737A1, “Antibodies That Bind GLP1R” (Twist Bioscience Corporation, priority 2019, published 2025).)
